The target in this assay is low density lipoprotein receptor-related protein 1 (LRP1) (human (endogenous in 1064Sk human skin fibroblasts)).

One molecule from paper PMC3281933 can be followed below.

B1: CCN1 (CYR61) (natural protein)
chain: TCPAACHCPLEAPKCAPGVGLVRDGCGCCKVCAKQLNEDCSKTQPCDHTKGLECNFGASSTALKGICRAQSEGRPCEYNSRIYQNGESFQPNCKHQCTCIDGAVGCIPLCPQELSLPNLGCPNPRLVKVTGQCCEEWVCDEDSIKDPMEDQDGLLGKELGFDASEVELTRNNELIAVGKGSSLKRLPVFGMEPRILYNPLQGQKCIVQTTSWSQCSKTCGTGISTRVTNDNPECRLVKETRICEVRPCGQPVYSSLKKGKKCSKTKKSPEPVRFTYAGCLSVKKYRPKYCGSCVDGRCCTPQLTRTVKMRFRCEDGETFSKNVMMIQSCKCNYNCPHANEAAFPFYRLFNDIHKFRD
Turning to B1, the CCN1/TNFα-induced apoptosis of human skin fibroblasts (CCN1 2 µg/ml, TNFα 10 ng/ml, 5 hrs) after pre-incubation with 1 µM recombinant RAP stood at 60%.
